Biological target: Down-regulated Hck kinase (containing an N-terminal His6 tag)
Experiment: cell-based or functional assay

HIV Nef protein
Activity (nmol · sec^-1), activator at 50 micromolar (nmol · sec^-1): 232
Fold-Activation, activator at 50 micromolar: 21 fold

— patent US20100273722A1, “MODIFIED MINIATURE PROTEINS” (Yale University, priority 2007, published 2010)
